{
  "source": "paper PMC5678894",
  "about": "(Biochemistry, 2017)",
  "proteins": {"B1": {"name": "Full-length R67 dihydrofolate reductase (enzyme)", "chain": "MIRSSNEVSNPVAGNFVFPSNATFGMGDRVRKKSGAAWQGQIVGWYCTNLTPEGYAVESEAHPGSVQIYPVAALERIN"}, "B2": {"name": "Chymotrypsin-truncated R67 dihydrofolate reductase (domain or fragment)", "chain": "VFPSNATFGMGDRVRKKSGAAWQGQIVGWYCTNLTPEGYAVESEAHPGSVQIYPVAALERIN"}},
  "molecular_target": "the molecule itself",
  "assay": "small angle neutron scattering",
  "data": [
    {"protein": "B1", "values": [
      {"measurement": "binding result", "result": "binds"}
    ]},
    {"protein": "B2", "values": [
      {"measurement": "binding result", "result": "binds"}
    ]}
  ]
}
